Common to all, as to test: crystal structure; disulfide cross-linked CA hexamers, hanging- or sitting-drop vapour diffusion, data at 100 K, molecular replacement with PDB 3H47
The target of assay [1] is HIV-1(O-group) CA hexamer (A14C, E45C, W185A, M186A) (HIV-1 group O).
The target of assay [2] is SIVcpz CA hexamer (P14C, E45C, W184A, M185A) (SIVcpzPtt (SIV of central chimpanzees)).
Assay [3] has as its target HIV-1(M-group) CA Q50Y hexamer (A14C, E45C, Q50Y, W184A, M185A) (HIV-1 group M).
Assay [4] has as its target SIVmac CA hexamer (P13C, E44C, W182A, M183A) (SIVmac (SIV from macaques)).

What is called stoichiometry N is the number of molecules, sites or subunits per partner or assembly. Regarding “HIV-1(O-group) CA hexamer (A14C, E45C, W185A, M186A) (natural protein)”, the stoichiometry N in assay [1] stood at 6.

Substance “SIVcpz CA hexamer (P14C, E45C, W184A, M185A) (natural protein)” returned a stoichiometry N in assay [2] of 6.

“HIV-1(M-group) CA Q50Y hexamer (A14C, E45C, Q50Y, W184A, M185A) (natural protein)” registered a stoichiometry N in assay [3] of 6.

For the substance “SIVmac CA hexamer (P13C, E44C, W182A, M183A) (natural protein)”, the stoichiometry N in assay [4] amounted to 6.

Source of the values: article PMC9613477.
